These results are taken from the supplement of paper PMC11780869.

The data set concerns Bacillus subtilis. The experiment in a line: cleaved RNA product abundance (RNA/gDNA barcode ratio) relative to median wild-type variant (ratio to wild type); higher = more accumulation of the downstream cleavage product. The conditions noted are these: cleavage site: cggR-gapA (positions -7 to +36 mutated). Summed up: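 Cleaved product abundance was measured with barcoded reporter mRNAs (truncated aprE or tetM) carrying mutagenized RNase Y cleavage-site windows in the B. subtilis chromosome. Cultures in LB at 37°C grew from OD600 0.0003 to 0.3. Gel-selected cleaved RNA was reverse transcribed and barcode-sequenced with genomic DNA barcodes, and the RNA:gDNA barcode ratio per construct was scaled to the median construct bearing the unmutated site.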

Where [1] appears, read: experiment (reporter, strain, medium): exp 2b: truncated aprE reporter, strain BJT200.
The mark [2] stands for this setting: experiment (reporter, strain, medium): exp 4a: truncated aprE reporter, strain BJT201 with 2% xylose (RNase J1 expressed).
Where [3] appears, read: experiment (reporter, strain, medium): exp 6: tetM reporter, strain 168.

Consider “ACAGACGAAGGAGCCGCAAAGAAGTTATTAAGGGATGAATCATACCTCAATATAAATATCTCTCACTTATTTAAA”, for which the “cleaved RNA product abundance” value is, setting by setting: under setting [1], 0.164; under setting [2], 0.215.

Take “ACAGACGAAGGAGCCGCAAAGAAGTTATTAAGGGATGAATCATCCATCAATATAAATATCTCTCACTTATTTAAA”: under setting [2], the “cleaved RNA product abundance” value was determined as 0.219.

Regarding “ACAGACGAAGGAGCCGCAAAGAAGTTATTAAGGGATGAATCATCCCACAATATAAATATCTCTCACTTATTTAAA”, the “cleaved RNA product abundance” value came to 0.21 under setting [1] and 0.192 under setting [2].

As to “ACAGACGAAGGAGCCGCAAAGAAGTTATTAAGGGATGAATCATCCCCCAATATAAATATCTCTCACTTATTTAAA”, under setting [2], the “cleaved RNA product abundance” value was 0.296.

In the case of “ACAGACGAAGGAGCCGCAAAGAAGTTATTAAGGGATGAATCATCCCTAAATATAAATATCTCTCACTTATTTAAA”, the “cleaved RNA product abundance” value by setting is: under setting [1], 0.597; under setting [2], 1.

“ACAGACGAAGGAGCCGCAAAGAAGTTATTAAGGGATGAATCATCCCTCAAGATAAATATCTCTCACTTATTTAAA”: the “cleaved RNA product abundance” value under setting [2] came out at 0.27.

As to “ACAGACGAAGGAGCCGCAAAGAAGTTATTAAGGGATGAATCATCCCTCAATAAAAATATCTCTCACTTATTTAAA”, the “cleaved RNA product abundance” value under setting [2] was determined as 0.197.

Consider “ACAGACGAAGGAGCCGCAAAGAAGTTATTAAGGGATGAATCATCCCTCAATATAAATAACTCTCACTTATTTAAA”, for which the “cleaved RNA product abundance” value under setting [2] amounted to 0.573.

With “ACAGACGAAGGAGCCGCAAAGAAGTTATTAAGGGATGAATCATCCCTCAATATAAATATCTCTCACTTATTTAAA”, the “cleaved RNA product abundance” value reads like this: under setting [1], 0.721; under setting [2], 0.902; under setting [3], 0.917.

For the sequence “ACAGACGAAGGAGCCGCAAAGAAGTTATTAAGGGATGAATCATCCCTCAATTTAAATATCTCTCACTTATTTAAA”, the “cleaved RNA product abundance” value under setting [1] is 0.169.

For the sequence “ACAGACGAAGGAGCCGCAAAGAAGTTATTAAGGGATGAATCATCCCTCACTATAAATATCTCTCACTTATTTAAA”, the “cleaved RNA product abundance” value under setting [2] came out at 0.22.

Take “ACAGACGAAGGAGCCGCAAAGAAGTTATTAAGGGATGAATCATCCCTTAATATAAATATCTCTCACTTATTTAAA”: under setting [2], the “cleaved RNA product abundance” value was found to be 0.46.

With “ACAGACGAAGGAGCCGCAAAGAAGTTATTAAGGGATGAATCATCTCTCAATATAAATATCTCTCACTTATTTAAA”, under setting [2], the “cleaved RNA product abundance” value was found to be 0.595.

On to “ACAGACGAAGGAGCCGCAAAGAAGTTATTAAGGGATGAATCATGCCTCAATATAAATATCTCTCACTTATTTAAA”, for which the “cleaved RNA product abundance” value amounted to 0.164 under setting [1] and 0.251 under setting [2].

In the case of “ACAGACGAAGGAGCCGCAAAGAAGTTATTAAGGGATGAATCTTCCCTCAATATAAATATCTCTCACTTATTTAAA”, the “cleaved RNA product abundance” value under setting [2] came to 1.05.

For the sequence “ACAGACGAAGGAGCCGCAAAGAAGTTATTAAGGGATGAATGATCCATCAATATAAATATCTCTCACTTATTTAAA”, the “cleaved RNA product abundance” value under setting [2] came to 0.259.

Turning to “ACAGACGAAGGAGCCGCAAAGAAGTTATTAAGGGATGAATGATCCCACAATATAAATATCTCTCACTTATTTAAA”, the “cleaved RNA product abundance” value under setting [1] was 0.121 and the “cleaved RNA product abundance” value under setting [2] came out at 0.101.

As to “ACAGACGAAGGAGCCGCAAAGAAGTTATTAAGGGATGAATGATCCCTAAATATAAATATCTCTCACTTATTTAAA”, the “cleaved RNA product abundance” value under setting [2] was found to be 0.488.

On to “ACAGACGAAGGAGCCGCAAAGAAGTTATTAAGGGATGAATGATCCCTCAAAATAAATATCTCTCACTTATTTAAA”, for which the “cleaved RNA product abundance” value was found to be 0.14 under setting [1] and 0.149 under setting [2].

For the sequence “ACAGACGAAGGAGCCGCAAAGAAGTTATTAAGGGATGAATGATCCCTCAATATAAAAATCTCTCACTTATTTAAA”, the “cleaved RNA product abundance” value under setting [2] was determined as 0.651.

Regarding “ACAGACGAAGGAGCCGCAAAGAAGTTATTAAGGGATGAATGATCCCTCAATATAAATATCTCTCACTTATTTAAA”, the “cleaved RNA product abundance” value under setting [1] was found to be 0.466, the “cleaved RNA product abundance” value under setting [2] worked out at 0.699 and the “cleaved RNA product abundance” value under setting [3] turned out to be 0.63.

Consider “ACAGACGAAGGAGCCGCAAAGAAGTTATTAAGGGATGAATGATCCCTCAATCTAAATATCTCTCACTTATTTAAA”, for which, under setting [2], the “cleaved RNA product abundance” value amounted to 0.0934.

In the case of “ACAGACGAAGGAGCCGCAAAGAAGTTATTAAGGGATGAATGATCCCTCCATATAAATATCTCTCACTTATTTAAA”, the “cleaved RNA product abundance” value under setting [1] is 0.123.

For the sequence “ACAGACGAAGGAGCCGCAAAGAAGTTATTAAGGGATGAATGATCCCTGAATATAAATATCTCTCACTTATTTAAA”, the “cleaved RNA product abundance” value under setting [2] was found to be 0.383.

As to “ACAGACGAAGGAGCCGCAAAGAAGTTATTAAGGGATGAATGATCCTTCAATATAAATATCTCTCACTTATTTAAA”, the “cleaved RNA product abundance” value under setting [2] worked out at 0.258.

For “ACAGACGAAGGAGCCGCAAAGAAGTTATTAAGGGATGAATTAACCCTCAATATAAATATCTCTCACTTATTTAAA”, under setting [2], the “cleaved RNA product abundance” value is 0.492.

For “ACAGACGAAGGAGCCGCAAAGAAGTTATTAAGGGATGAATTATACCTCAATATAAATATCTCTCACTTATTTAAA”, the “cleaved RNA product abundance” value is, setting by setting: under setting [1], 0.139; under setting [2], 0.162.

Regarding “ACAGACGAAGGAGCCGCAAAGAAGTTATTAAGGGATGAATTATCACTCAATATAAATATCTCTCACTTATTTAAA”, the “cleaved RNA product abundance” value under setting [2] is 0.178.

On to “ACAGACGAAGGAGCCGCAAAGAAGTTATTAAGGGATGAATTATCCATCAATATAAATATCTCTCACTTATTTAAA”, for which the “cleaved RNA product abundance” value runs as follows: under setting [1], 0.163; under setting [2], 0.144.

With “ACAGACGAAGGAGCCGCAAAGAAGTTATTAAGGGATGAATTATCCCACAATATAAATATCTCTCACTTATTTAAA”, the “cleaved RNA product abundance” value under setting [2] worked out at 0.319.

Turning to “ACAGACGAAGGAGCCGCAAAGAAGTTATTAAGGGATGAATTATCCCTAAATATAAATATCTCTCACTTATTTAAA”, the “cleaved RNA product abundance” value is, setting by setting: under setting [1], 0.399; under setting [2], 0.433.

Consider “ACAGACGAAGGAGCCGCAAAGAAGTTATTAAGGGATGAATTATCCCTCAACATAAATATCTCTCACTTATTTAAA”, for which the “cleaved RNA product abundance” value is, setting by setting: under setting [1], 0.179; under setting [2], 0.284.

Regarding “ACAGACGAAGGAGCCGCAAAGAAGTTATTAAGGGATGAATTATCCCTCAATATAAAAATCTCTCACTTATTTAAA”, the “cleaved RNA product abundance” value under setting [2] worked out at 0.966.

Consider “ACAGACGAAGGAGCCGCAAAGAAGTTATTAAGGGATGAATTATCCCTCAATATAAATACCTCTCACTTATTTAAA”, for which the “cleaved RNA product abundance” value under setting [1] was determined as 0.469.

Turning to “ACAGACGAAGGAGCCGCAAAGAAGTTATTAAGGGATGAATTATCCCTCAATATAAATATCTCTCACTTATTTAAA”, the “cleaved RNA product abundance” value runs as follows: under setting [1], 0.687; under setting [2], 0.845; under setting [3], 0.559.

As for “ACAGACGAAGGAGCCGCAAAGAAGTTATTAAGGGATGAATTATCCCTCAATATACATATCTCTCACTTATTTAAA”, under setting [2], the “cleaved RNA product abundance” value was 0.442.

“ACAGACGAAGGAGCCGCAAAGAAGTTATTAAGGGATGAATTATCCCTCAATATATATATCTCTCACTTATTTAAA”: the “cleaved RNA product abundance” value under setting [2] was 0.616.

Take “ACAGACGAAGGAGCCGCAAAGAAGTTATTAAGGGATGAATTATCCCTCACTATAAATATCTCTCACTTATTTAAA”: under setting [2], the “cleaved RNA product abundance” value stood at 0.208.

Turning to “ACAGACGAAGGAGCCGCAAAGAAGTTATTAAGGGATGAATTATCCCTCATTATAAATATCTCTCACTTATTTAAA”, the “cleaved RNA product abundance” value under setting [2] is 0.32.

Take “ACAGACGAAGGAGCCGCAAAGAAGTTATTAAGGGATGAATTATCCCTCTATATAAATATCTCTCACTTATTTAAA”: the “cleaved RNA product abundance” value under setting [2] was 0.3.

Regarding “ACAGACGAAGGAGCCGCAAAGAAGTTATTAAGGGATGAATTATCCCTGAATATAAATATCTCTCACTTATTTAAA”, the “cleaved RNA product abundance” value under setting [1] turned out to be 0.396.

On to “ACAGACGAAGGAGCCGCAAAGAAGTTATTAAGGGATGAATTATCCCTTAATATAAATATCTCTCACTTATTTAAA”, for which the “cleaved RNA product abundance” value under setting [2] was found to be 0.438.

On to “ACAGACGAAGGAGCCGCAAAGAAGTTATTAAGGGATGAATTATCCTTCAATATAAATATCTCTCACTTATTTAAA”, for which the “cleaved RNA product abundance” value by setting is: under setting [1], 0.232; under setting [2], 0.284.

On to “ACAGACGAAGGAGCCGCAAAGAAGTTATTAAGGGATGAATTATCTCTCAATATAAATATCTCTCACTTATTTAAA”, for which the “cleaved RNA product abundance” value is, setting by setting: under setting [1], 0.318; under setting [2], 0.37.

For the sequence “ACAGACGAAGGAGCCGCAAAGAAGTTATTAAGGGATGAATTATTCCTCAATATAAATATCTCTCACTTATTTAAA”, the “cleaved RNA product abundance” value under setting [2] is 0.215.

Take “ACAGACGAAGGAGCCGCAAAGAAGTTATTAAGGGATGAATTTTCCCTCAATATAAATATCTCTCACTTATTTAAA”: the “cleaved RNA product abundance” value under setting [2] was determined as 0.73.

For the sequence “ACAGACGAAGGAGCCGCAAAGAAGTTATTAAGGGATGACCAATCCCTCAATATAAATATCTCTCACTTATTTAAA”, the “cleaved RNA product abundance” value under setting [2] stood at 0.749.

Turning to “ACAGACGAAGGAGCCGCAAAGAAGTTATTAAGGGATGACTAAACCCTCAATATAAATATCTCTCACTTATTTAAA”, the “cleaved RNA product abundance” value was 0.197 under setting [1] and 0.303 under setting [2].

As to “ACAGACGAAGGAGCCGCAAAGAAGTTATTAAGGGATGACTAATACCTCAATATAAATATCTCTCACTTATTTAAA”, under setting [2], the “cleaved RNA product abundance” value turned out to be 0.0872.

Take “ACAGACGAAGGAGCCGCAAAGAAGTTATTAAGGGATGACTAATCCATCAATATAAATATCTCTCACTTATTTAAA”: the “cleaved RNA product abundance” value runs as follows: under setting [1], 0.112; under setting [2], 0.154.

Take “ACAGACGAAGGAGCCGCAAAGAAGTTATTAAGGGATGACTAATCCCACAATATAAATATCTCTCACTTATTTAAA”: the “cleaved RNA product abundance” value under setting [1] is 0.157 and the “cleaved RNA product abundance” value under setting [2] came to 0.197.

As to “ACAGACGAAGGAGCCGCAAAGAAGTTATTAAGGGATGACTAATCCCTAAATATAAATATCTCTCACTTATTTAAA”, the “cleaved RNA product abundance” value under setting [2] amounted to 0.359.

As for “ACAGACGAAGGAGCCGCAAAGAAGTTATTAAGGGATGACTAATCCCTCAAAATAAATATCTCTCACTTATTTAAA”, under setting [1], the “cleaved RNA product abundance” value was 0.192.
